This note sets out measurements from patent US20230242634A1.

This test concerns the target human TNF-α (human) (UniProt P01375). As to the kind of experiment: cell-based or functional assay.
Sequence of UniProt P01375 (P01375 77-233 limits assumed): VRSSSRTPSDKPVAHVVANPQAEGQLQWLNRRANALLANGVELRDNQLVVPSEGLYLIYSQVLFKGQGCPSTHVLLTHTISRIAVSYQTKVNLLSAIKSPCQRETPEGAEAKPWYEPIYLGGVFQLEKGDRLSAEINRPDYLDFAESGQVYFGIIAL

“TA001 (the original Adalimumab) (antibody)” had an IC50 (M), TNF-α-mediated killing of L929 cells (CCK-8) of 1.48e-08 M.
